Data set [1] deals with CD45 (human (endogenous in Jurkat)) (UniProt P08575). Nature of the data set: dSTORM localization statistics (number of localizations per cluster); live Jurkat T cells of large passage number labelled on ice with HI30-AF647, then fixed with 2% FA and 0.25% GA; TIRF on the basal membrane; DBSCAN clusters compared with theoretical monomer and dimer distributions.
Data set [2] concerns the molecule itself. Description: dSTORM localization statistics (number of localizations per cluster); Jurkat T cells labelled with FN50-AF647, live on ice or after PFA or FA fixation, independent of the passage number; DBSCAN clusters compared with theoretical monomer and dimer distributions.

The term stoichiometry N denotes the number of molecules, sites or subunits per partner or assembly. Turning to “CD45 (from UniProt P08575 26-1306) (receptor)”, in data set [1], the stoichiometry N was found to be 2.

B1: CD69 (receptor, human (endogenous in Jurkat), UniProt Q07108 1-199, looked up)
chain: MSSENCFVAENSSLHPESGQENDATSPHFSTRHEGSFQVPVLCAVMNVVFITILIIALIALSVGQYNCPGQYTFSMPSDSHVSSCSEDWVGYQRKCYFISTVKRSWTSAQNACSEHGATLAVIDSEKDMNFLKRYAGREEHWVGLKKEPGHPWKWSNGKEFNNWFNVTGSDKCVFLKNTEVSSMECEKNLYWICNKPYK
notes: CD69, endogenous in the plasma membrane of human Jurkat T cells; the introduction describes it as a phosphorylated disulfide-linked homodimer; Written as the protomer; the self-association row gives the dimer; Detected with the anti-CD69 antibody FN50-AF647; source: endogenous, on Jurkat T cells (Jurkat E6-1)
For B1, the “stoichiometry N” value in data set [2] turned out to be 2.
